Assay results taken from publication PMC3195632.

Tested on: His6-H1.4 (unphosphorylated) (human)
Experiment: EMSA

Q: For 216-bp 601 mononucleosome, which binding signal (% shifted (H1-shifted band)) is on record?
A: 35.9
